This is an account of results in article PMC4585913, “Crystal structure of Streptococcus pneumoniae pneumolysin provides key insights into early steps of pore formation” (Scientific Reports, 2015).

The series concerns the molecule itself. Kind of series: crystal structure; PLY 10.5 mg/ml co-crystallised with 5 mM KAu(CN)2 in 10% PEG 8000, 10% glycerol, 10% ethylene glycol, 100 mM HEPES pH 7.5; space group P212121, one molecule in the asymmetric unit; linear oligomer formed by crystal packing; 2.9 A.

B1: Pneumolysin (Hexahis-PLY, wild type) (natural protein, Streptococcus pneumoniae)
chain: ANKAVNDFILAMNYDKKKLLTHQGESIENRFIKEGNQLPDEFVVIERKKRSLSTNTSDISVTATNDSRLYPGALLVVDETLLENNPTLLAVDRAPMTYSIDLPGLASSDSFLQVEDPSNSSVRGAVNDLLAKWHQDYGQVNNVPARMQYEKITAHSMEQLKVKFGSDFEKTGNSLDIDFNSVHSGEKQIQIVNFKQIYYTVSVDAVKNPGDVFQDTVTVEDLKQRGISAERPLVYISSVAYGRQVYLKLETTSKSDEVEAAFEALIKGVKVAPQTEWKQILDNTEVKAVILGGDPSSGARVVTGKVDMVEDLIQEGSRFTADHPGLPISYTTSFLRDNVVATFQNSTDYVETKVTAYRNGDLLLDHSGAYVAQYYITWNELSYDHQGKEVLTPKAWDRNGQDLTAHFTTSIPLKGNVRNLSVKIRECTGLAWEWWRTVYEKTDLPLVRKRTISIWGTTLYPQVEDKVEN
notes: Pneumolysin (PLY) of Streptococcus pneumoniae, wild type, cloned into pQE-30; the domains described span residues 1 to 470; The crystals run on SDS-AGE were grown without gold; Three residues of the His tag/linker are visible at the N-terminus of the model; It is written here as m1; also called native PLY; not shown: His6, N-terminal, kept
Consider B1, for which the binding result is recorded as “binds”.
